Target: T1, AAV9 empty capsid (adeno-associated virus serotype 9 (AAV9), Assembled icosahedral particle of about 60 copies of VP1, VP2 and VP3 (nested forms of one cap gene product) with no nuc [CUT])
T1 construct: Assembled viral particle without nucleic acid, adsorbed to a Maxisorp plate; It has the same capsid protein as the full capsid and differs only in the packaged nucleic acid; also called AAV9 empty capsid sample; AAV empty capsids
Experiment: ELISA, 0.1 ug AAV9 coated on Maxisorp plate, scFv detected with HRP-labeled anti-His-Tag antibody, A450-A650; reference: blank (BSA)

B1: second anti-AAV-scFv [2] (scFv)
scFv: QSLEESGGDLVKPGASLTLTCTASGFSFSSNYWMFWVRQAPGKGLEWIAHIYGGSSGSTYYASWAKGRFTISKTSSTTVTLQMTSLTAADTATYFCATVDNGYSDLKLWGPGTLVTVTSGGGGSGGGGSGGGGSELVLTQTADSVEAGVGGTVTIKCQASQSIRNWLSWYQQKPGQPPKLLISRASTLASGVPSRFSGSGSGTEFTLTISDLECDDGATYYCQSSFYADSGEPAFGGGTEVDIKRSAAAGGGSEQKLISEEDLGGGSHHHHHH
notes: Rabbit-derived scFv from a phage library, purified from E. coli culture supernatant with His MultiTrap FF; also called second anti-AAV full capsid molecule
Q: B1 was tested. Which “IE/IB (ratio of ELISA absorbance for the empty capsid sample to that for the blank (BSA))” value did it give?
A: 3.7 ratio

Source: patent publication EP4806914A1 (Daicel Corporation, dated 2026)
